Reference: publication PMC5356278, “Identification of residues important for the activity of aldehyde-deformylating oxygenase through investigation into the structure-activity relationship” (BMC Biotechnology, 2017)

Tests used:
[1] = substrate: CCCCCCC=O; assay: purified protein; type: biochemical, Synechocystis sp. PCC 6803; conditions: NADH 750 uM, PMS 75 uM, catalase 1 mg/ml, ferrous ammonium sulfate 80 uM, 100 mM HEPES pH 7.2, 100 mM KCl
[2] = substrate: CCCCCCC=O; assay: purified protein; type: biochemical, Synechococcus elongatus; conditions: NADH 750 uM, PMS 75 uM, catalase 1 mg/ml, ferrous ammonium sulfate 80 uM, 100 mM HEPES pH 7.2, 100 mM KCl

Protein | Km [1] [µM] | kcat [1] [s⁻¹] | kcat/Km [1] [M⁻¹ s⁻¹] | Km [2] [µM] | kcat [2] [s⁻¹] | kcat/Km [2] [M⁻¹ s⁻¹]
cADO-sll0208 (sll0208) (Synechocystis sp. PCC 6803 substr. Kazusa; L148R) (protein, full gene in pET-28a(+) (NdeI/XhoI), E. coli BL21(DE3), nickel column; apo enzyme reconstituted with stoichiometric ferrous iron (diferrous form)) MPELAVRTEFDYSSEIYKDAYSRINAIVIEGEQEAYSNYLQMAELLPEDKEELTRLAKMENRHKKGFQACGNNLQVNPDMPYAQEFFAGLHGNFQHAFSEGKVVTCLLIQALIIEAFAIAAYNIYIPVADDFARKITEGVVKDEYTHRNYGEEWLKANFATAKEELEQANKENLPLVWKMLNQVQGDAKVLGMEKEALVEDFMISYGEALSNIGFSTREIMRMSSYGLAGV | 320 ± 80 | 0.0152 ± 0.00133 | 47.3 ± 5 | – | – | –
cADO-sll0208 (sll0208) (Synechocystis sp. PCC 6803 substr. Kazusa) (protein, full gene in pET-28a(+) (NdeI/XhoI), E. coli BL21(DE3), nickel column; apo enzyme reconstituted with stoichiometric ferrous iron (diferrous form)) MPELAVRTEFDYSSEIYKDAYSRINAIVIEGEQEAYSNYLQMAELLPEDKEELTRLAKMENRHKKGFQACGNNLQVNPDMPYAQEFFAGLHGNFQHAFSEGKVVTCLLIQALIIEAFAIAAYNIYIPVADDFARKITEGVVKDEYTHLNYGEEWLKANFATAKEELEQANKENLPLVWKMLNQVQGDAKVLGMEKEALVEDFMISYGEALSNIGFSTREIMRMSSYGLAGV | 350 ± 70 | 0.00983 ± 0.000667 | 28.2 ± 3.33 | – | – | –
cADO-sll0208 (sll0208) (Synechocystis sp. PCC 6803 substr. Kazusa; D49H/N123H) (protein, full gene in pET-28a(+) (NdeI/XhoI), E. coli BL21(DE3), nickel column; apo enzyme reconstituted with stoichiometric ferrous iron (diferrous form)) MPELAVRTEFDYSSEIYKDAYSRINAIVIEGEQEAYSNYLQMAELLPEHKEELTRLAKMENRHKKGFQACGNNLQVNPDMPYAQEFFAGLHGNFQHAFSEGKVVTCLLIQALIIEAFAIAAYHIYIPVADDFARKITEGVVKDEYTHLNYGEEWLKANFATAKEELEQANKENLPLVWKMLNQVQGDAKVLGMEKEALVEDFMISYGEALSNIGFSTREIMRMSSYGLAGV | 380 ± 80 | 0.0138 ± 0.00133 | 36.3 ± 3.33 | – | – | –
cADO-1593 (1593) (Synechococcus elongatus PCC 7942 = FACHB-805; L146T) (protein, codon-optimised synthetic gene, E. coli BL21(DE3), nickel column; apo enzyme reconstituted with stoichiometric ferrous iron (diferrous form)) MPQLEASLELDFQSESYKDAYSRINAIVIEGEQEAFDNYNRLAEMLPDQRDELHKLAKMEQRHMKGFMACGKNLSVTPDMGFAQKFFERLHENFKAAAAEGKVVTCLLIQSLIIECFAIAAYNIYIPVADAFARKITEGVVRDEYTHRNFGEEWLKANFDASKAELEEANRQNLPLVWLMLNEVADDARELGMERESLVEDFMIAYGEALENIGFTTREIMRMSAYGLAAV | – | – | – | 340 ± 80 | 0.0157 ± 0.00133 | 46 ± 5
cADO-1593 (1593) (Synechococcus elongatus PCC 7942 = FACHB-805; F150Y) (protein, codon-optimised synthetic gene, E. coli BL21(DE3), nickel column; apo enzyme reconstituted with stoichiometric ferrous iron (diferrous form)) MPQLEASLELDFQSESYKDAYSRINAIVIEGEQEAFDNYNRLAEMLPDQRDELHKLAKMEQRHMKGFMACGKNLSVTPDMGFAQKFFERLHENFKAAAAEGKVVTCLLIQSLIIECFAIAAYNIYIPVADAFARKITEGVVRDEYLHRNYGEEWLKANFDASKAELEEANRQNLPLVWLMLNEVADDARELGMERESLVEDFMIAYGEALENIGFTTREIMRMSAYGLAAV | – | – | – | 200 ± 40 | 0.0125 ± 0.000667 | 62.5 ± 6.67
cADO-1593 (1593) (Synechococcus elongatus PCC 7942 = FACHB-805; F150Y/Q49H) (protein, codon-optimised synthetic gene, E. coli BL21(DE3), nickel column; apo enzyme reconstituted with stoichiometric ferrous iron (diferrous form)) MPQLEASLELDFQSESYKDAYSRINAIVIEGEQEAFDNYNRLAEMLPDHRDELHKLAKMEQRHMKGFMACGKNLSVTPDMGFAQKFFERLHENFKAAAAEGKVVTCLLIQSLIIECFAIAAYNIYIPVADAFARKITEGVVRDEYLHRNYGEEWLKANFDASKAELEEANRQNLPLVWLMLNEVADDARELGMERESLVEDFMIAYGEALENIGFTTREIMRMSAYGLAAV | – | – | – | 330 ± 50 | 0.0145 ± 0.000667 | 44 ± 3.33
cADO-1593 (1593) (Synechococcus elongatus PCC 7942 = FACHB-805; F150Y/N123H/Q49H) (protein, codon-optimised synthetic gene, E. coli BL21(DE3), nickel column; apo enzyme reconstituted with stoichiometric ferrous iron (diferrous form)) MPQLEASLELDFQSESYKDAYSRINAIVIEGEQEAFDNYNRLAEMLPDHRDELHKLAKMEQRHMKGFMACGKNLSVTPDMGFAQKFFERLHENFKAAAAEGKVVTCLLIQSLIIECFAIAAYHIYIPVADAFARKITEGVVRDEYLHRNYGEEWLKANFDASKAELEEANRQNLPLVWLMLNEVADDARELGMERESLVEDFMIAYGEALENIGFTTREIMRMSAYGLAAV | – | – | – | 350 ± 20 | 0.0173 ± 0.000333 | 49.5 ± 5
cADO-1593 (1593) (Synechococcus elongatus PCC 7942 = FACHB-805; W178R) (protein, codon-optimised synthetic gene, E. coli BL21(DE3), nickel column; apo enzyme reconstituted with stoichiometric ferrous iron (diferrous form)) MPQLEASLELDFQSESYKDAYSRINAIVIEGEQEAFDNYNRLAEMLPDQRDELHKLAKMEQRHMKGFMACGKNLSVTPDMGFAQKFFERLHENFKAAAAEGKVVTCLLIQSLIIECFAIAAYNIYIPVADAFARKITEGVVRDEYLHRNFGEEWLKANFDASKAELEEANRQNLPLVRLMLNEVADDARELGMERESLVEDFMIAYGEALENIGFTTREIMRMSAYGLAAV | – | – | – | 340 ± 80 | 0.0302 ± 0.0025 | 88.7 ± 6.67
